Columns and labels:
[1] = tested on: untransfected 293 cells; assay: adenylyl cyclase assay in untransfected 293 cells; format: cell-based, human; conditions: agouti 0.7 nM
Protocol: 293 cells (5×10^5) and 293 cells expressing human TSH-R were preloaded with 5 μCi ^3H-adenine for 1.5 h at 37° C. in a 5% CO2 incubator.
Medium was aspirated and 2.5% perchloric acid containing 0.1 mM cAMP was used to stop the incubation. Adenylyl cyclase activity was calculated by determining the percent conversion of ^3H-adenine to ^3H-cAMP as described (Salomon, 1991; Johnson and Salomon, 1991). Correlation of cAMP accumulation measured in this assay with actual adenylyl cyclase activity is made under the assumption that isobutymethylxanthine effectively blocks cAMP degradation. Data represent means and standard deviations from triplicate data points.

[2] = tested on: 3T3-L1 adipocytes; assay: [Ca2+]i in 3T3-L1 adipocytes (fura 2); format: cell-based; conditions: for [Ca2+]i Increase over Baseline: 400 s, n = 8
Protocol: (§1) The spontaneously fusing L6 skeletal muscle cells [American Type Culture Collection (ATCC), Bethesda, MD] were grown in 75-cm^2 flasks in Dulbecco's modified Eagle's medium with 10% glucose (DMEM) supplemented with 5% fetal bovine serum (FBS, vol/vol), 5% calf serum supplemented iron enriched (CS, vol/vol, and antibiotics (50 U penicillin/ml and 5 μg of streptomycin/ml). Cultures were maintained in continuous passages (<20) by trypsinization (0.05% trypsin) of semiconfluent nonfused cells. A7r5 vascular smooth muscle cells (ATCC) were grown in the same conditions as for L6 cells. 3T3-L1 cells (ATCC) were grown in 100-mm dishes in DMEM containing 10% FBS and antibiotics. For differentiation of fibroblasts into adipocytes, confluent cells were incubated in DMEM-FBS containing 0.5 mM 3-isobutyl-1-methylxanthine (IBMX; Sigma, St. Louis, Mo.) and 0.25 μM dexamethasone (Dex; Sigma) for 60 h. IBMX and Dex were then removed, and cells remained in DMEM-FBS with 250 μg/ml geneticin and compared with nontransfected HEK-293 cells. All types of cells were maintained at 37° C. in an atmosphere containing 5% CO2 and 100% humidity. Cell culture reagents, FBS, CS, and trypsin-EDTA were obtained from GIBCO/BRL (Grand Island, N.Y.).
Viruses incorporating this vector were produced by standard methods (Lu et al., 1994). Spodoptera frugiperda cells (Sf-9) were propagated in Grace's supplemented medium containing 10% CS and 0.1% Pluronic F68 and used to produce […] viral stocks. Fifteen-liter scale production runs of murine or human agouti were produced using T. ni cells adapted to suspension (JRH Biosciences, Woodland, Calif.). T ni cells were infected 24 h postseeding at a density of 10^6 cells/ml, and conditioned media from infected cells were harvested 48 h after infection filtered through a Whatman 3 filter and purified as recently described (Willard et al., 1995).
[Ca^2+]i was measured in L6, A7r5, and HEK-293 cells (Zemel et al., 1995) as previously described and in 3T3-L1 cells as described by Klip and Ramlal (1987). Monolayers of nonfused L6 cells and confluent A7r5 cells after 14-16 h of starvation in a serum-free culture medium were rinsed with Hanks' balanced salt solution (HBSS), detached by incubation in 2 ml trypsin (0.05%) for 2-3 min at 37° C., and released by pipetting without trypsinization. Cells were harvested by centrifugation at 50 g and resuspended in 1 ml HBSS at a density of ˜10^6 cells/ml. […] [Ca^2+]i levels were then measured fluorometrically in suspensions using dual excitation (340 and 380 nm)-single emission (510 nm) fluorometry as previously described (Zemel et al., 1995). [Ca^2+]i was then calculated by the computer in the fluorometer with the equation of Grynkiewicz et al. (1985). […]

[3] = molecular target: T1, rat MC3-R (Rattus norvegicus, UniProt P32244); assay: α-MSH activation of rat MC3-R in transfected 293 cells (adenylyl cyclase); format: cell-based; conditions: agouti 0.7 nM
T1 construct: expressed in transfected cells; host or cells: 293 cells

[4] = tested on: A7r5 vascular smooth muscle cells; assay: [Ca2+]i in A7r5 vascular smooth muscle cells (fura 2); format: cell-based; conditions: 400 s, n = 8
Protocol: as §1, with “IBMX and Dex were then removed, and cells remained in DMEM-FBS with 250 μg/ml geneticin and compared with nontransfected HEK-293 cells. All types of cells were maintained at 37° C. in an atmosphere containing 5% CO2 and 100% humidity. Cell culture reagents, FBS, CS, and trypsin-EDTA were obtained from GIBCO/BRL (Grand Island, N.Y.).” left out
[Ca^2+]i was measured in L6, A7r5, and HEK-293 cells (Zemel et al., 1995) as previously described and in 3T3-L1 cells as described by Klip and Ramlal (1987). […] [Ca^2+]i levels were then measured fluorometrically in suspensions using dual excitation (340 and 380 nm)-single emission (510 nm) fluorometry as previously described (Zemel et al., 1995). [Ca^2+]i was then calculated by the computer in the fluorometer with the equation of Grynkiewicz et al. (1985). […]

[5] = molecular target: T2, murine MSH-R (Mus musculus, UniProt Q01727); assay: α-MSH activation of murine MSH-R in stably transfected 293 cells (adenylyl cyclase); format: cell-based; conditions: agouti 0.7 nM
T2 construct: expressed in transfected cells; host or cells: 293 cells, stably transfected
T2 sequence (Q01727 whole entry): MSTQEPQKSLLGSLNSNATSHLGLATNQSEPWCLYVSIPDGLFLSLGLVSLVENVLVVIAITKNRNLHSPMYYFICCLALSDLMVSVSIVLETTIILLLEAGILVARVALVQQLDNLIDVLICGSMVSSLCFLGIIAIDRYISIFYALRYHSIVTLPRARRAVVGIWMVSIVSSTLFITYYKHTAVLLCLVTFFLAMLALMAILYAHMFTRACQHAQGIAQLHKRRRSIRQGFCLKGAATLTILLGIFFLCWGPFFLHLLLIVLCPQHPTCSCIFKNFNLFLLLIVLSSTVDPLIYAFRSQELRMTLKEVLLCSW

T1 sequence (P32244 whole entry): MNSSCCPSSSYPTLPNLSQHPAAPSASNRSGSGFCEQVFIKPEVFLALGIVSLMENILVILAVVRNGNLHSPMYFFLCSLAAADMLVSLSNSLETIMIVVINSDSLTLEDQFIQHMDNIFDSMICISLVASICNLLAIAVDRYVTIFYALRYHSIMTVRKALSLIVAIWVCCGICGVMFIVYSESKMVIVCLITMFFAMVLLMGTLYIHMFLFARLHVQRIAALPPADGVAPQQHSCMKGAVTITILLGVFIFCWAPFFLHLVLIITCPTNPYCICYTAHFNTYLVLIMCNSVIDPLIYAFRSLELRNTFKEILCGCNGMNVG

B1: agouti: recombinant mouse agouti protein (131 amino acids, SEQ ID NO:2) produced with the baculovirus expression system in T. ni cells (protein, listed as Mus musculus)
chain: MDVTRLLLATLVSFLCFFTVHSHLALEETLGDDRSLRSNSSMNSLDFSSVSIVALNKKSKKISRKEAEKRKRSSKKKASMKKVARPPPPSPCVATRDSCKPPAPACCDPCASCQCRFFGSACTCRVLNPNC
effect on basal adenylyl cyclase levels [1]: no effect
[Ca2+]i Increase over Baseline ([2]; 5 nM Agouti): 73 ± 6 nM
[Ca2+]i Increase over Baseline ([2]; 25 nM Agouti): 33 ± 6 nM
[Ca2+]i increase over baseline (plateau) ([2]; 50 nM agouti, 400 s after agouti addition): 73 ± 6 nM
[Ca2+]i increase ([2]; 50 nM agouti, after 200 s): 44 ± 4 nM
antagonism of receptor activation [3]: did not antagonize
[Ca2+]i Increase over Baseline ([4]; 5 nM Agouti): 74 ± 6 nM
[Ca2+]i Increase over Baseline ([4]; 25 nM Agouti): 46 ± 9 nM
maximally induced activity of the receptor [5]: did not alter

From patent publication US6514747B2 (UT-Battelle, LLC, priority 1993, dated 2003)
